Laboratory results taken from article PMC6927032.
pIC50: −log10 of the molar value.

Target: TglB (Pseudomonas syringae)
Experiment: fluorescence polarisation

TglA V48A (peptide)
pIC50: 3.95

TglA I44A (peptide)
pIC50: 4.62

TglA E42A (peptide)
pIC50: 4.98

TglA S46A (peptide)
pIC50: 4.96

WT TglA (peptide)
pIC50: 5.10

TglA K47A (peptide)
pIC50: 3.59

TglA V43A (peptide)
pIC50: 4.01

TglA F49A (peptide)
pIC50: 5.38

TglA E45A (peptide)
pIC50: < 3.52

TglA I41A (peptide)
pIC50: 4.49

TglA D40A (peptide)
pIC50: 4.82
